According to patent publication US20040248211A1, “ICAM-related protein” (priority 1992, published 2004):
Substitutions are numbered along the chain they refer to.

What was measured:
[1] = tested on: JY cells (LFA-1) binding to ICAM-R/IgG; test: JY cell binding to plate-bound ICAM-R/IgG chimeras; type: cell-based, human; details: chimera coated at 10 μg/ml
Description: The binding of the lymphoblastoid cell line JY, which expresses LFA-1, to wild type ICAM-R/IgG chimera was examined in the presence and absence of LFA-1 specific antibodies or antibodies specific for either domain 1 or 2 of ICAM-R. ICAM-R chimeras were diluted to 10 μg/ml in 0.1M Na-carbonate/bicarbonate buffer pH 9.6 and used to coat triplicate wells (50 μl/well) of an Immulon 4 96-well plate (Dynatech) overnight at 4° C. Wells were washed three times in PBS and blocked with 1% BSA (in PBS) for 1 hour at 37° C. JY cells were labeled with the fluorescent dye Calcein (Moleculat Probes, Eugene, Oreg.) at 8 μg/ml at 37° C. in serum free RPMI for 20 minutes. Cells were washed with RPMI and resuspended in binding buffer (0.2% HSA in RPMI. Approximately 1×10^5 cells were added to each well containing the binding buffer with or without antibody (20 μg/ml of ICR-2.1, ICR-1.1, ICR-3.1, ICR-5.1, ICR-7.1, ICR-8.1, ICR-4.2, ICR-6.2, ICR-9.2, TS1/22 or 60.3) so that the final volume was 0.35 ml. Plates were incubated at 37° C. in the dark for 45 minutes and input fluorescence was quantitated with a fluorescence reader (Millipore) in a 96-well format. Unbound cells were removed by inverting the plate in 0.1% BSA in PBS for 20 minutes. Bound cells were quantitated by measuring the remaining fluorescence and presented as percent input minus background binding to wells coated with BSA alone.

[2] = tested on: Neutrophil binding to ICAM-R E37/A; test: Neutrophil adhesion; type: cell-based, human
Description: (§1) Binding of HL-60 cells, neutrophils, and COS cells expressing. CD11b to the chimeric proteins was assayed as follows. The chimeric fusion proteins were diluted to 20 μg/ml in 0.1 M Na-carbonate/bicarbonate buffer (pH 9.6) and 50 μl was used to coat each well (in triplicate) of an Immulon 4 96-well plate (Dynatech). The plates were incubated overnight at 4° C. and washed three times in PBS. Wells were blocked with 1% human serum albumin (HSA) for one hour at 37° C. and washed three times in PBS. Two hundred μl of RPMI+0.25% HSA (with/without phorbol ester at 10 ng/ml, with/without blocking mAb at 15 μg/ml) was added to each well. ICAM-R antibodies used were ICR-1.1, ICR-8.1, ICR-4.2, ICR-6.2, ICR-9.2, and ICR-19.3. […] The adherent cells were quantified by staining with crystal violet (1% solution in 10% ethanol), washing with water and eluting the dye with 66% ethanol in water and measuring the absorbance at 570 nm. In each experiment percent cells bound was calculated using the absorbency values obtained from the CD18 mAb coated well as 100%. […]
This motif in domain 1 of ICAM-1 is essential for CD11a but not CD11b binding. Consequently, the effect of the alanine substitution at ICAM-R E37 (E37/A) on CD11b binding was evaluated.

[3] = biological target: T1, αd/CD18 transfected CHO cells (Homo sapiens, UniProt P05107+Q13349); test: Binding of transfected CHO cells to immobilized chimeras; type: cell-based; details: immobilized chimera
T1 construct: expressed in transfected cells; host or cells: CHO cells
T1 sequence (Q13349 18-1161): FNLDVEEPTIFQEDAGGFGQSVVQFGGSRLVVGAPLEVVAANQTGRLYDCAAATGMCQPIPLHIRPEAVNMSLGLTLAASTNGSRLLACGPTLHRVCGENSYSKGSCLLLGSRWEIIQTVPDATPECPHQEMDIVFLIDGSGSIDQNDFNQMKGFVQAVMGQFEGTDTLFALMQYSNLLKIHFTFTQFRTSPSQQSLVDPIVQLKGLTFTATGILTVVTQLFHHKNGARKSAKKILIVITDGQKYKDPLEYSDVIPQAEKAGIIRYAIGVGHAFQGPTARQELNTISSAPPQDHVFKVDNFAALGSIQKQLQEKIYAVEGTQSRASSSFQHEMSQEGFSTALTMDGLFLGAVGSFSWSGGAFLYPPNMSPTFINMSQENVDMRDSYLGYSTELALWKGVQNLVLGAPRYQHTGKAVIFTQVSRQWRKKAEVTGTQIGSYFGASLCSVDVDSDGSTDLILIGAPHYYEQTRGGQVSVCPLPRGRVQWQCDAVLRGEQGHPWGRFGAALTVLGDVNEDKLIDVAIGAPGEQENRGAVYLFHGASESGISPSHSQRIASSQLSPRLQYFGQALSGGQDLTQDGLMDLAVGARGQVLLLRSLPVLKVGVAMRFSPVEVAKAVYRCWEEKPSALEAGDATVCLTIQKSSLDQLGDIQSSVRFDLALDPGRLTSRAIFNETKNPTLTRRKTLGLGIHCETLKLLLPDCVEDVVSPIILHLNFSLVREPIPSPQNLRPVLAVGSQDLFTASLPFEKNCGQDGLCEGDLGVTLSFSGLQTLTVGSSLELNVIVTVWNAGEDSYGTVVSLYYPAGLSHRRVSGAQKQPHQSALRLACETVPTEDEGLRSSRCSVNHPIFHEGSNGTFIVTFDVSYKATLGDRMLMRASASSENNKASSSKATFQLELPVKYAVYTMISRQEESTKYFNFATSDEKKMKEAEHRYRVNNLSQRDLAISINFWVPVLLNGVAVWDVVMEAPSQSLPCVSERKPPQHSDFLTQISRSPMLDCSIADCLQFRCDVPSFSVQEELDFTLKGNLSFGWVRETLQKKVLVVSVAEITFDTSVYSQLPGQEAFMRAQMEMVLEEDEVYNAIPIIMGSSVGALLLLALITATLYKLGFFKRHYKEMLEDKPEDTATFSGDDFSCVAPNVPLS
T1 sequence (P05107 23-769): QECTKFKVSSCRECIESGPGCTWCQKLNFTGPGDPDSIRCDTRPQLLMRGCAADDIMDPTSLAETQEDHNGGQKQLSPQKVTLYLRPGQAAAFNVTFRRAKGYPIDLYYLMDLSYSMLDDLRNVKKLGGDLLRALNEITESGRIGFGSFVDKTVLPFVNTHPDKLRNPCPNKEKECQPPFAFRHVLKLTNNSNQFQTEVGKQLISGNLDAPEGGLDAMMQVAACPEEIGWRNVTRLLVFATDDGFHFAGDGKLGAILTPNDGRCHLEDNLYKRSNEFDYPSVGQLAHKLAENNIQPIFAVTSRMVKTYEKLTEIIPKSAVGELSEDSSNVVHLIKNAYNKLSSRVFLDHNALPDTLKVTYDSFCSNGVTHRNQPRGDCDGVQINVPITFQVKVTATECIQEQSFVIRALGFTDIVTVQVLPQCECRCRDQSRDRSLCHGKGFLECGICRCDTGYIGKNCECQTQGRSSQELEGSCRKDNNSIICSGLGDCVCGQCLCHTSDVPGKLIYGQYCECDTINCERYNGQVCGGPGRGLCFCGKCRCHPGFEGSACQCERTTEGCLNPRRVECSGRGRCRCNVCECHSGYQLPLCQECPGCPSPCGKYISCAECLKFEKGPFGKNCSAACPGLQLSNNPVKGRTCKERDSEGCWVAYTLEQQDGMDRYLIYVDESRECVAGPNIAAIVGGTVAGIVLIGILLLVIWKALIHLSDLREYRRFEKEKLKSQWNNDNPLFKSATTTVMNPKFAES
Description: (§2) In replicate assays, soluble ICAM-1, ICAM-R, or VCAM-1 IgG1 chimeric fusion proteins were immobilized on plastic and the ability of αd/CD18 or LFA-1 transfected CHO cells (see co-owned, concurrently filed U.S. patent application Ser. No. 08/286,889 identified as attorney docket No. 32168) to bind the immobilized ligand was determined. Transfected cells were labeled internally with calcein, washed in binding buffer (RPMI with 1% BSA), and incubated in either buffer only (with or without 10 ng/ml PMA) or buffer with anti-CD18 at 10 μg/ml. Transfected cells were added to 96-well Immulon 4 microtiter plates previously coated with soluble ICAM-1/Ig, ICAM-R/Ig or VCAM-1/Ig chimera, or bovine serum albumin (BSA) as a negative control. Wells were blocked with 1% BSA in PBS prior to addition of labeled cells. After washing the plates by immersion in PBS with 0.1% BSA for 20 minutes, total fluorescence remaining in each well was measured using a Cytofluor 2300 (Millipore, Milford, Mass.).

[4] = biological target: T1, αd/CD18 transfected CHO cells; test: Flow cytometry binding of soluble chimeras; details: chimera 5 μg/ml
Description: Binding of αd/CD18-transfected cells to soluble ICAM-1/IgG, ICAM-R/IgG, or VCAM-1/IgG chimeras was determined by flow cytometry. Approximately one million αd/CD18-transfected CHO cells (grown in spinner flasks for higher expression) per measurement were suspended in 100 μl binding buffer (RPMI and 1% BSA) with or without 10 μg/ml anti-CD18 antibody. After a 20 minute incubation at room temperature, the cells were washed in binding buffer and soluble ICAM-1/IgG or ICAM-R/IgG chimera was added to a final concentration of 5 μg/ml. Binding was allowed to proceed for 30 minute at 37° C., after which the cells were washed three times and resuspended in 100 μl binding buffer containing FITC-conjugated sheep anti-human IgG1 at a 1:100 dilution. After a 30 minute incubation, samples were washed three times and suspended in 200 μl binding buffer for analysis with a Becton Dickinson FACScan.

[5] = biological target: T2, LFA-1 transfected CHO cells (Homo sapiens, UniProt P05107+P20701); test: Binding of transfected CHO cells to immobilized chimeras; type: cell-based; details: only following pretreatment with PMA
T2 construct: expressed in transfected cells; host or cells: CHO cells
T2 sequence (P20701 26-1170): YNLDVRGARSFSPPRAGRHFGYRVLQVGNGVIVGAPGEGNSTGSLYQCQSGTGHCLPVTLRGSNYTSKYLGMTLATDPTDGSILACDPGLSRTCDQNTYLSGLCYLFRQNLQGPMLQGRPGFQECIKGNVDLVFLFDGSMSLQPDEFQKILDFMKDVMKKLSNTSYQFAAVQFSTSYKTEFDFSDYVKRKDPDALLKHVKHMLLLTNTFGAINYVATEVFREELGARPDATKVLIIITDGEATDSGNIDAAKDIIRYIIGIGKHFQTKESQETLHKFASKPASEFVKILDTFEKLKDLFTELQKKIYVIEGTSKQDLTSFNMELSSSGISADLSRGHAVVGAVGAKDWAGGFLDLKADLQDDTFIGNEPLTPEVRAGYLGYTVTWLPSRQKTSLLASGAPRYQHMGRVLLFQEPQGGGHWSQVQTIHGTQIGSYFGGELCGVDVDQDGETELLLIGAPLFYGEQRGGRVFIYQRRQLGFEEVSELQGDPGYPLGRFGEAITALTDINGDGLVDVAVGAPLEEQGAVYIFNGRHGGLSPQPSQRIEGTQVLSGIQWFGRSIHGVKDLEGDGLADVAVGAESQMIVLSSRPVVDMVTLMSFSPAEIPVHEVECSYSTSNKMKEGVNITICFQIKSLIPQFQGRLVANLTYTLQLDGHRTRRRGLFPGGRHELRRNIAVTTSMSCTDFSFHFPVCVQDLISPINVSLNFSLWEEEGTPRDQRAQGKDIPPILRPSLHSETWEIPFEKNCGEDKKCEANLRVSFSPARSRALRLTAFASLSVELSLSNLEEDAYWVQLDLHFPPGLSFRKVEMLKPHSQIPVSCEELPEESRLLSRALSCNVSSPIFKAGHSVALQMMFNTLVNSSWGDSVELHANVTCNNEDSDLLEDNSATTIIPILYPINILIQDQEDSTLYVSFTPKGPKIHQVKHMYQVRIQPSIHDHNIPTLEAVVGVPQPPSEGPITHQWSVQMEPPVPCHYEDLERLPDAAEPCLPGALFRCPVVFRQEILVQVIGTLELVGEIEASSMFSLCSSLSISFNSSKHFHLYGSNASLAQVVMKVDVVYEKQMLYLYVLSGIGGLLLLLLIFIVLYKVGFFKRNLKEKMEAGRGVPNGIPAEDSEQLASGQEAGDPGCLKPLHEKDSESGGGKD
T2 sequence (P05107 23-769): as the sequence (P05107 23-769) above
Description: as §2

[6] = tested on: neutrophil binding to ICAM-2; test: Neutrophil adhesion; type: cell-based, human
Description: as §1, with “ICR-19.3. CD11a blocking antibody TS1/22 (ATCC HB202) and CD11b blocking antibodies 44AACB (ATCC HB249) and LM2/1 (ATCC HB204) were also used as well as monoclonal antibodies IC/A4.1 to CD49d (α4) and 22F12C to CD18, both of which were generated using standard hybridoma techniques.” for “ICR-19.3.”

[7] = tested on: Neutrophil binding to ICAM-R/His; test: Neutrophil adhesion; type: cell-based, human
Description: as §1, with “ICR-19.3. CD11a blocking antibody TS1/22 (ATCC HB202) and CD11b blocking antibodies 44AACB (ATCC HB249) and LM2/1 (ATCC HB204) were also used as well as monoclonal antibodies IC/A4.1 to CD49d (α4) and 22F12C to CD18, both of which were generated using standard hybridoma techniques.” for “ICR-19.3.”

B1: ICAM-R E37/A: ICAM-R/IgG chimera with alanine substitution at E37 (protein)
chain: QEFLLRVEPQNPVLSAGGSLFVNCSTDCPSSEKIALATSLSKELVASGMGWAAFNLSNVTGNSRILCSVYCNGSQITGSSNITVYGLPERVELAPLPPWQPVGQNFTLRCQVEGGSPRTSLTVVLLRWEEELSRQPAVEEPAEVTATVLASRDDHGAPFSCRTELDMQPQGLGLFVNTSAPRQLRTFVLPVTPPRLVAPRFLEVETSWPVDCTLDGLFPASEAQVYLALGDQMLNATVMNHGDTLTATATATARADQEGAREIVCNVTLGGERREARENLTVFSFLGPIVNLSEPTAHEGSTVTVSCMAGARVQVTLDGVPAAAPGQTAQLQLNATESDDGRSFFCSATLEVDGEFLHRNSSVQLRVLYGPKIDRATCPQHLKWKDKTRHVLQCQARGNPYPELRCLKEGSSREVPVGIPFFVNVTHNGTYQCQASSSRGKYTLVVVMDIEAFSSH
modifications: left off: a dimerising Fc or GST
LFA-1 mediated JY cell adhesion to variant ICAM-R/IgG chimera [1]: completely abrogated adhesion of JY cells | neutrophil binding relative to wild type ICAM-R [2]: binding was reduced relative to wild type ICAM-R

B2: VCAM-1/IgG: soluble VCAM-1 IgG1 chimeric fusion protein (protein)
chain: FKIETTPESRYLAQIGDSVSLTCSTTGCESPFFSWRTQIDSPLNGKVTNEGTTSTLTMNPVSFGNEHSYLCTATCESRKLEKGIQVEIYSFPKDPEIHLSGPLEAGKPITVKCSVADVYPFDRLEIDLLKGDHLMKSQEFLEDADRKSLETKSLEVTFTPVIEDIGKVLVCRAKLHIDEMDSVPTVRQAVKELQVYISPKNTVISVNPSTKLQEGGSVTMTCSSEGLPAPEIFWSKKLDNGNLQHLSGNATLTLIAMRMEDSGIYVCEGVNLIGKNRKEVELIVQEKPFTVEISPGPRIAAQIGDSVMLTCSVMGCESPSFSWRTQIDSPLSGKVRSEGTNSTLTLSPVSFENEHSYLCTVTCGHKKLEKGIQVELYSFPRDPEIEMSGGLVNGSSVTVSCKVPSVYPLDRLEIELLKGETILENIEFLEDTDMKSLENKSLEMTFIPTIEDTGKALVCQAKLHIDDMEFEPKQRQSTQTLYVNVAPRDTTVLVSPSSILEEGSSVNMTCLSQGFPAPKILWSRQLPNGELQPLSENATLTLISTKMEDSGVYLCEGINQAGRSRKEVELIIQVTPKDIKLTAFPSESVKEGDTVIISCTCGNVPETWIILKKKAETGDTVLKSIDGAYTIRKAQLKDAGVYECESKNKVGSQLRSLTLDVQGRENNKDYFSPE
modifications: left off: a dimerising Fc or GST
notes: soluble VCAM-1 IgG1 chimeric fusion protein
increase in binding of αd/CD18 co-transfectants over BSA coated wells [3]: No detectable binding | αd/CD18 transfectants binding soluble chimera [4]: no binding

B3: ICAM-1/IgG: soluble ICAM-1 IgG1 chimeric fusion protein (protein)
chain: QTSVSPSKVILPRGGSVLVTCSTSCDQPKLLGIETPLPKKELLLPGNNRKVYELSNVQEDSQPMCYSNCPDGQSTAKTFLTVYWTPERVELAPLPSWQPVGKNLTLRCQVEGGAPRANLTVVLLRGEKELKREPAVGEPAEVTTTVLVRRDHHGANFSCRTELDLRPQGLELFENTSAPYQLQTFVLPATPPQLVSPRVLEVDTQGTVVCSLDGLFPVSEAQVHLALGDQRLNPTVTYGNDSFSAKASVSVTAEDEGTQRLTCAVILGNQSQETLQTVTIYSFPAPNVILTKPEVSEGTEVTVKCEAHPRAKVTLNGVPAQPLGPRAQLLLKATPEDNGRSFSCSATLEVAGQLIHKNQTRELRVLYGPRLDERDCPGNWTWPENSQQTPMCQAWGNPLPELKCLKDGTFPLPIGESVTVTRDLEGTYLCRARSTQGEVTRKVTVNVLSPRYE
modifications: left off: a dimerising Fc or GST
notes: soluble ICAM-1 IgG1 chimeric fusion protein
increase in binding of LFA-1 transfected cells [5]: 2-3 fold | αd/CD18 transfectants binding soluble chimera [4]: no binding

B4: ICAM-2: chimeric ICAM-2/IgG fusion protein (protein)
chain: KVFEVHVRPKKLAVEPKGSLEVNCSTTCNQPEVGGLETSLDKILLDEQAQWKHYLVSNISHDTVLQCHFTCSGKQESMNSNVSVYQPPRQVILTLQPTLVAVGKSFTIECRVPTVEPLDSLTLFLFRGNETLHYETFGKAAPAPQEATATFNSTADREDGHRNFSCLAVLDLMSRGGNIFHKHSAPKMLEIYEPVSDSQ
modifications: left off: a dimerising Fc or GST
notes: chimeric ICAM-2/IgG fusion protein
neutrophil binding relative to ICAM-1 [6]: approximately 70%

B5: ICAM-R/His: histidine-tagged ICAM-R extracellular region fusion protein (protein)
chain: B1 chain with A37E
modifications: left off: small tags and cut ends
notes: histidine-tagged ICAM-R extracellular region fusion protein
neutrophil adhesion to immobilized protein [7]: Neutrophils adhered to immobilized ICAM-R/His
